Test results as given in patent publication US20240010735A1 (EISAI R AND D MANAGEMENT, published 2024).

How the values were obtained:
Assay in all cases: ELISA: Fc-His proteins (1 nM) captured on anti-6-His antibody, antibody B 10 µg/mL with human IgG 100 µg/mL, HRP anti-human kappa light chain antibody, OD450 as % of mouse EphA4-Fc-His
[1] = target: T1, mouse EphA8 extracellular region-Fc-His protein (mouse; human, UniProt O09127 27-541)
T1 construct: extracellular domain; not shown: Fc region of human IgG1; histidine tag
T1 sequence (looked up): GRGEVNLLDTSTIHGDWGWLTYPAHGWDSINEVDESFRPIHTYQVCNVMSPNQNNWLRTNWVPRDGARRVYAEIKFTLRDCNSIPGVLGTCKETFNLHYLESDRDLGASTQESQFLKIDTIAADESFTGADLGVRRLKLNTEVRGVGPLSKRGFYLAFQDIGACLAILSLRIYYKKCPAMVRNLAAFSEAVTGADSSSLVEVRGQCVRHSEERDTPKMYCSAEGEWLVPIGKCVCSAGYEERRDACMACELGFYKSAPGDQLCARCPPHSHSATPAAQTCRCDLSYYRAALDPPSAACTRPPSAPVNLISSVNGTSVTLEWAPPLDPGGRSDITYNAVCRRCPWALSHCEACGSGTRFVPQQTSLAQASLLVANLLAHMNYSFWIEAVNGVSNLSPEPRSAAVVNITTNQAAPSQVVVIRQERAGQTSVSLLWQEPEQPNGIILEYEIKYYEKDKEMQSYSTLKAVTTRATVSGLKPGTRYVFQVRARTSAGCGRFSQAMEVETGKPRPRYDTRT
Procedure: (§1) Rabbit anti-6-His antibodies (Bethyl Laboratories) were coated onto the wells of a 96-well plate (Nunc). After incubating at 4° C. overnight, the wells were blocked at room temperature for 1 hour by 1% Block Ace (DS Pharma Biomedical). After washing 3 times with 0.05% Tween 20/PBS (Thermo […]), each Eph receptor of mouse extracellular region-Fc-His protein (final concentration 1 nM) was seeded into each well, and incubated at room temperature for 1 hour. After washing 3 times, human IgG solution (100 μg/mL, Sigma) and antibody B (10 μg/mL) were supplemented to the wells, and incubated at room temperature for 1 hour. Horseradish peroxidase-labeled goat anti-human Kappa Light Chain antibody (IBL) was added, and incubated at room temperature for 1 hour. After washing 3 times, TMBZ (3,3′,5,5′-tetramethylbenzidine, Sigma) solution was added to the wells, and upon confirmation of modest coloring, an equal amount of quenching solution (1 N H₂SO₄, Wako Pure Chemicals) was added to the wells, and absorbance at 450 nm was read by a microplate reader (PerkinElmer).

[2] = target: T2, mouse EphB2 extracellular region-Fc-His protein (mouse; human, UniProt P54763 19-543)
T2 construct: extracellular domain; not shown: Fc region of human IgG1; histidine tag
T2 sequence (looked up): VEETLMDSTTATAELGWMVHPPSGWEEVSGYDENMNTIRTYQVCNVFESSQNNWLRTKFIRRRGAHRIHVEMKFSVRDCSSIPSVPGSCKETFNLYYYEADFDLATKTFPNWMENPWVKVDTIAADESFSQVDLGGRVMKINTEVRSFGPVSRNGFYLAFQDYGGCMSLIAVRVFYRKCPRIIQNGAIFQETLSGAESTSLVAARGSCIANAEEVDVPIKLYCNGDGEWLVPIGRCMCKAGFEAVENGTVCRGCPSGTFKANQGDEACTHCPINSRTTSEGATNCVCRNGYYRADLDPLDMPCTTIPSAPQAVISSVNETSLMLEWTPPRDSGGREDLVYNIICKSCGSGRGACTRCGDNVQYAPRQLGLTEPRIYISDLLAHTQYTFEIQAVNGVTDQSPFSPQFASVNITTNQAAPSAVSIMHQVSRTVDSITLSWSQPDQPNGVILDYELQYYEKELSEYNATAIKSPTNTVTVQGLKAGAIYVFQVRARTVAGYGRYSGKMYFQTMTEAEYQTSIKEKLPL
Procedure: as §1

[3] = target: T3, mouse EphA10 extracellular region-Fc-His protein (mouse; human, UniProt Q8BYG9 23-565)
T3 construct: extracellular domain; not shown: Fc region of human IgG1; histidine tag
T3 sequence (looked up): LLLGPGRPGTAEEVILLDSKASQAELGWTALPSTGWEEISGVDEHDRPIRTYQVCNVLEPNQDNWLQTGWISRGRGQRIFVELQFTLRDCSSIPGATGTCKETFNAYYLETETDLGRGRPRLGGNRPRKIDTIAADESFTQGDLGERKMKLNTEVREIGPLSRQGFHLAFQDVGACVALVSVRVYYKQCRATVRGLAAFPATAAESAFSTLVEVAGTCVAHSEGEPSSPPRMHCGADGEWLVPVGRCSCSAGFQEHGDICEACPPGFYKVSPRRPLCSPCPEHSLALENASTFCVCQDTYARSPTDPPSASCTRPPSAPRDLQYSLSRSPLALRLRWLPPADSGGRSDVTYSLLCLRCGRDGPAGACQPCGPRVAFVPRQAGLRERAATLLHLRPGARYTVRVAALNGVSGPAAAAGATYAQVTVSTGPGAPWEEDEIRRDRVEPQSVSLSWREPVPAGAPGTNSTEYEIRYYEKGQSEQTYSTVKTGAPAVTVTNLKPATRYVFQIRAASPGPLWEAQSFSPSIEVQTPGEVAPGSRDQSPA
Procedure: as §1

Measured: binding result

B1: humanized anti-EphA4 monoclonal antibody (antibody B) (antibody, human IgG2, V domains shown)
VH: QVQLVESGGGVVQPGRSLRLSCAVSGFSLTRFGVHWVRQAPGKGLEWVAVIWRGGSTDYNAAFMSRLTISKDNSKNTVYLQMNSLRAEDTAVYYCAKESLFGVYYDYGYYSMDYWGQGTTVTVSS
VL: DIQMTQSPSSLSASVGDRVTITCRASQEISGYLSWLQQKPGKAPKRLIYAASTLDSGVPSRFSGSRSGTEYTLTISSLQPEDFATYYCLQYASYPLTFGGGTKVEIKR
notes: expressed in Expi293F cells; also called humanized antibody of antibody A; HK2-42 / L1-8
no binding (tested: 10 µg/mL): [1] | [2] | [3]
